In the supplement of paper PMC10567573 one finds protein stability index data, which are given here for 94 variants.

The chains are these.
B1: NEK8 (parent)
chain: VTIKHVACGDFFTACLTDRGIIMT
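Further: lentivirally expressed fusions sorted by FACS into six bins by GFP to DsRed ratio, PSI derived from sequencing read proportions per bin multiplied by bin number.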

The data set covers variants of B1. Nature of the data set: protein stability index of a GFP-peptide fusion (GPS, HEK-293T) (PSI 1-6); higher = more stable. The note with it: c terminus: a fixed tail appended.
Take VTIKHVACGDFFTACSTDRGIIMT [L16S]: the protein stability index stood at 3.85.
With VTIKHVACGDFFTACTTDRGIIMT [L16T], the protein stability index came out at 1.76.
The same measure for VTIKHVACGDFFTACYTDRGIIMT [L16Y]: 2.13; for VTIKHVACGDFFTACQTDRGIIMT [L16Q]: 3.06.
Turning to VTIKHVACGDFFTACRTDRGIIMT [L16R], the protein stability index worked out at 2.33.
With VTIKHVACGDFFTACLTDRKIIMT [G20K], the protein stability index was found to be 2.35.
On to VTIKHVACGDFFTACLTDRAIIMT [G20A], for which the protein stability index was 3.45.
For VTIKHVACGDFFTACLTDRPIIMT [G20P] the value was 3.42; for VTIKHVACGDFFTACLTDRDIIMT [G20D], 2.04; for VTIKHVACGDFFTACLTDRWIIMT [G20W], 2.57.
For VTIKHVACGDFFTACLTDRHIIMT [G20H], the protein stability index worked out at 3.22.
For VTIKHVACGDFFTACLTDRQIIMT [G20Q], the protein stability index was determined as 2.06.
Take VTIKHVACGDFFTACLTDRCIIMT [G20C]: the protein stability index turned out to be 2.94.
VTIKHVACGDFFTACLTDRNIIMT [G20N]: the protein stability index is 2.75.
The same measure for VTIKHVACGDFFTACLTDRMIIMT [G20M]: 3.22; for VTIKHVACGDFFTACLTDRLIIMT [G20L]: 2.91.
For VTIKHVACGDFFTACLTDRSIIMT [G20S] the value was 2.84; for VTIKHVACGDFFTACLTDRVIIMT [G20V], 1.72; for VTIKHVACGDFFTACLTDRIIIMT [G20I], 2.82.
Turning to VTIKHVACGDFFTACLTDRTIIMT [G20T], the protein stability index was 1.48.
For VTIKHVACGDFFTACLTDRFIIMT [G20F] the value was 2.21; for VTIKHVACGDFFTACLTDRYIIMT [G20Y], 2.3; for VTIKHVACGDFFTACLTDRGIIKT [M23K], 1.91.
In the case of VTIKHVACGDFFTACLTDRGIIVT [M23V], the protein stability index was found to be 2.73.
For VTIKHVACGDFFTACLTDRGIIET [M23E], the protein stability index came out at 2.81.
For VTIKHVACGDFFTACLTDRGIIRT [M23R] the value was 1.41; for VTIKHVACGDFFTACLTDRGIINT [M23N], 2.3.
The same measure for VTIKHVACGDFFTACLTDRGIIQT [M23Q]: 1.47.
For VTIKHVACGDFFTACLTDRGIICT [M23C], the protein stability index worked out at 2.67.
On to VTIKHVACGDFFTACLTDRGIIST [M23S], for which the protein stability index is 2.56.
VTIKHVACGDFFTACLTDRGIIPT [M23P]: the protein stability index was determined as 2.9.
For the variant VTIKHVACGDFFTACLTDRGIITT [M23T], the protein stability index was 1.89.
For VTIKHVACGDFFTACLTDRGIIDT [M23D] the value was 3.49; for VTIKHVACGDFFTACLTDRGIIIT [M23I], 2.77.
For VTIKHVACGDFFTACLTDRGIIGT [M23G] the value was 3.62; for VTIKHVACGDFFTACLTDRGIIAT [M23A], 1.6; for VTIKHVACGDFFTACLTDRGIIHT [M23H], 2.61.
In the case of VTIKHVACGDFFTACLTDRGIILT [M23L], the protein stability index came to 3.85.
For VTIKHVACGDFFTACLTDRGIIYT [M23Y], the protein stability index was determined as 3.28.
For VTIKHVACGDFFTACLTDDGIIMT [R19D], the protein stability index came out at 3.29.
For VTIKHVACGDFFTACLTDKGIIMT [R19K] the value was 3.78; for VTIKHVACGDFFTACLTDIGIIMT [R19I], 2.96; for VTIKHVACGDFFTACLTDHGIIMT [R19H], 1.81.
The same measure for VTIKHVACGDFFTACLTDVGIIMT [R19V]: 2.56; for VTIKHVACGDFFTACLTDYGIIMT [R19Y]: 2.32.
For VTIKHVACGDFFTACLTDCGIIMT [R19C] the value was 2.48; for VTIKHVACGDFFTACLTDPGIIMT [R19P], 4.49.
As for VTIKHVACGDFFTACLTDEGIIMT [R19E], the protein stability index came out at 3.52.
For VTIKHVACGDFFTACLTDQGIIMT [R19Q], the protein stability index stood at 1.92.
For VTIKHVACGDFFTACLTDAGIIMT [R19A] the value was 2.01.
The same measure for VTIKHVACGDFFTACLTDNGIIMT [R19N]: 3.56; for VTIKHVACGDFFTACLTDMGIIMT [R19M]: 2.32.
The same measure for VTIKHVACGDFFTACLTDTGIIMT [R19T]: 2.77; for VTIKHVACGDFFTACLTDWGIIMT [R19W]: 3.11.
Take VTIKHVACGDFFTACLTDSGIIMT [R19S]: the protein stability index worked out at 2.97.
VTIKHVACGDFFTACLTDGGIIMT [R19G]: the protein stability index is 3.25.
For VTIKHVACGDFFTACLTDRGIIMH [T24H] the value was 1.84; for VTIKHVACGDFFTACLTDRGIIMI [T24I], 3.19.
On to VTIKHVACGDFFTACLTDRGIIMF [T24F], for which the protein stability index came out at 2.64.
Turning to VTIKHVACGDFFTACLTDRGIIMC [T24C], the protein stability index was 2.87.
For VTIKHVACGDFFTACLTDRGIIMG [T24G] the value was 3.47.
The same measure for VTIKHVACGDFFTACLTDRGIIMS [T24S]: 2.33; for VTIKHVACGDFFTACLTDRGIIMV [T24V]: 2.81.
For VTIKHVACGDFFTACLTDRGIIMN [T24N], the protein stability index came out at 2.41.
The same measure for VTIKHVACGDFFTACLTDRGIIMD [T24D]: 3.14; for VTIKHVACGDFFTACLTDRGIIMK [T24K]: 2.93.
As for VTIKHVACGDFFTACLTDRGIIMA [T24A], the protein stability index is 2.87.
As for VTIKHVACGDFFTACLTDRGIIML [T24L], the protein stability index is 4.18.
The same measure for VTIKHVACGDFFTACLTDRGIIME [T24E]: 3.11; for VTIKHVACGDFFTACLTDRGIIMY [T24Y]: 2.3.
For VTIKHVACGDFFTACLTDRGIIMR [T24R], the protein stability index worked out at 2.45.
Turning to VTIKHVACGDFFTACLTPRGIIMT [D18P], the protein stability index is 3.31.
For VTIKHVACGDFFTACLTNRGIIMT [D18N] the value was 3.07.
For the variant VTIKHVACGDFFTACLTSRGIIMT [D18S], the protein stability index worked out at 4.67.
The same measure for VTIKHVACGDFFTACLTWRGIIMT [D18W]: 3.08.
Take VTIKHVACGDFFTACLTARGIIMT [D18A]: the protein stability index was 4.82.
The same measure for VTIKHVACGDFFTACLTVRGIIMT [D18V]: 3.85; for VTIKHVACGDFFTACLTFRGIIMT [D18F]: 4.13.
For VTIKHVACGDFFTACLTRRGIIMT [D18R] the value was 5.42; for VTIKHVACGDFFTACLTYRGIIMT [D18Y], 3.05.
For VTIKHVACGDFFTACLTKRGIIMT [D18K] the value was 4.11.
Turning to VTIKHVACGDFFTACLTCRGIIMT [D18C], the protein stability index was 2.02.
With VTIKHVACGDFFTACLTGRGIIMT [D18G], the protein stability index was determined as 3.08.
The same measure for VTIKHVACGDFFTACLTTRGIIMT [D18T]: 2.72; for VTIKHVACGDFFTACLTLRGIIMT [D18L]: 2.09; for VTIKHVACGDFFTACLTDRGAIMT [I21A]: 1.79.
For VTIKHVACGDFFTACLTDRGNIMT [I21N] the value was 2.87; for VTIKHVACGDFFTACLTDRGFIMT [I21F], 2.9.
The same measure for VTIKHVACGDFFTACLTDRGSIMT [I21S]: 2.5; for VTIKHVACGDFFTACLTDRGRIMT [I21R]: 2.49.
Take VTIKHVACGDFFTACLTDRGHIMT [I21H]: the protein stability index was 2.36.
VTIKHVACGDFFTACLTDRGVIMT [I21V]: the protein stability index came out at 3.14.
The same measure for VTIKHVACGDFFTACLTDRGQIMT [I21Q]: 2.92; for VTIKHVACGDFFTACLTDRGEIMT [I21E]: 3.51.
